± gives the standard deviation of the averaged measurements.
System: ATP
Test: switch fluorescence ratio, 500 uM ATP over buffer (Cy3 cluster intensity, sum of 5 cycles each) (fold (ratio)); higher = stronger signal-on switching upon ATP binding; sequences stand for … in TCGTCGGCAGCGTCAGATGTGTATAAGAGACAGTTTTTTTTTTTTTTTTTTTTTTTTT…TC
Details: aptamer strand: ATP DNA aptamer (quencher-CACCTGGGGGAGTATTGCGGAGGAAGG + anchor), 100 nM annealed; ATP concentration: 500 uM
Summary of the method: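 Imaging in selection buffer was followed by imaging after 15 min with 500 uM ATP at 22 °C, for Cy3-labelled switching-strand clusters annealed to 100 nM quencher-labelled ATP aptamer on a modified Illumina MiSeq flow-cell. Five of these buffer/ATP cycles ran, separated by NaOH stripping and re-annealing. The fluorescence ratio per cluster is summed target-cycle over summed buffer-cycle Cy3 intensity, averaged per switch-domain sequence; clusters outside 100-1000 RFU were removed.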
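Further: ATP exposure 15 min at 22 °C before imaging.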

| Sequence | switch fluorescence ratio |
| --- | --- |
| ATGAGTAGGG | 1.018 ± 0.0098 |
| ACGAGGCTCA | 1.062 ± 0.0068 |
| TTAGGTTGGC | 1 ± 0.069 |
| GGGGGGTGCT | 1.02 ± 0.03 |
| TATTTTTCGC | 0.967 ± 0.015 |
| TAAGTATTGG | 0.977 ± 0.037 |
| TTTACAAAGT | 0.994 ± 0.049 |
| TGGGGGAGGA | 0.979 ± 0.02 |
| CGTTCTGGGG | 0.984 ± 0.05 |
| GAGTGGGCCT | 0.963 ± 0.044 |
| CAGGGGCACG | 1.06 ± 0.04 |
| TTTATGAGG | 0.997 ± 0.019 |
| GTACTTGGTC | 1.03 ± 0.048 |
| GATCGTTGGT | 0.991 ± 0.021 |
| CTGTCTGCCG | 1.01 ± 0.017 |
| GACGACGACA | 2.5 ± 0.092 |
| TTTGGGGAGA | 1 ± 0.041 |
| GCTTACGGGG | 1.04 ± 0.049 |
| AGAGAAGGGT | 0.996 ± 0.017 |
| TATTTAGGCG | 0.99 ± 0.064 |
| AAGGTTTGCC | 0.965 ± 0.028 |

| Sequence | switch fluorescence ratio |
| --- | --- |
| TAAAGCTAGG | 0.995 ± 0.065 |
| ATCGGGGATT | 1.01 ± 0.014 |
| ATTTGGGAGA | 0.978 ± 0.042 |
| TGGCAGTGTG | 1.05 ± 0.019 |
| GATTAAAAT | 1.01 ± 0.013 |
| GATTGCGAGG | 0.9887 ± 0.0059 |
| ATTGCTCTGT | 1.04 ± 0.036 |
| TTCACTTAGC | 1.075 ± 0.0076 |
| GGCGCGTCCA | 0.994 ± 0.013 |
| CTGCAACTAA | 2.27 ± 0.054 |
| TCTTTGCAGC | 1.025 ± 0.0041 |
| GCAACCTGAG | 1.56 ± 0.14 |
| CCGGTTTCGT | 1.26 ± 0.26 |
| TCGGGCGG | 1.03 ± 0.014 |
| GCAGTATAAT | 0.9932 ± 0.0099 |
| ATCTAAACGT | 1.0574 ± 0.00082 |
| AGCGATTTTT | 1.01 ± 0.053 |
| GGGGTTTTCT | 1.01 ± 0.016 |
| AACAGCGGGA | 1.08 ± 0.068 |
| TGTTTCCGTG | 0.9766 ± 0.0027 |
| GTATTTTTAG | 0.993 ± 0.033 |
